# Experimental data as given in article PMC4072508, “Genome-Wide Prediction and Validation of Peptides That Bind Human Prosurvival Bcl-2 Proteins” (PLoS Computational Biology, 2014).
# T1: Mcl-1, Q07820
# T1 chain: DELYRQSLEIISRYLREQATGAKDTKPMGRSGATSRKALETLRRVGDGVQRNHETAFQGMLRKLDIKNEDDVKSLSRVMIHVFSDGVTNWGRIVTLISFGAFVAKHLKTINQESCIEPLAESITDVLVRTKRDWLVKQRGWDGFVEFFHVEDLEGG
# T2: Bfl-1, Q16548
# T2 chain: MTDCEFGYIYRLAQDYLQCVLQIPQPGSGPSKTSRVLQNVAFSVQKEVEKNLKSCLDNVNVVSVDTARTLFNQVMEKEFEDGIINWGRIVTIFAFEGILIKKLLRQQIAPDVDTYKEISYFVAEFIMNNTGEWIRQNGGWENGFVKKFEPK
# Tests used:
# Assay in all cases: peptide SPOT array, c-Myc-tagged receptor at 1 uM or 100 nM, anti-c-Myc-Cy3
# [1] = biological target: T1, Mcl-1, Q07820
# [2] = biological target: Bcl-xL, Q07817
# [3] = biological target: T2, Bfl-1, Q16548
# Sequence of Bcl-xL, Q07817 (Q07817 1-209): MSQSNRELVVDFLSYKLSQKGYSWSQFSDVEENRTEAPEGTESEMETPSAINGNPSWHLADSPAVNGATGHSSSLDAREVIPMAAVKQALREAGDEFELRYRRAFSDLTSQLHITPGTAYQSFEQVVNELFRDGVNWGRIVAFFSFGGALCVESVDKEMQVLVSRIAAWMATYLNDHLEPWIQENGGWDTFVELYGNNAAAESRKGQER
Binder,SPOT signal as a fraction of Bim BH3's signal on the same receptor and array [1],SPOT signal as a fraction of Bim BH3's signal on the same receptor and array [2],SPOT signal as a fraction of Bim BH3's signal on the same receptor and array [3]
WVKSIRICTPDGKLGDSCHPLTRKVP,0.75,1.01,0.47
ELDEDDLEAELDALLDELLADEDSSY [CHMP5],0.03,0.06,0.03
HTALENCASLDCIRADELQEALTSHC [MYO3A],0.03,0.05,0.03
WTLFVYTKGNDRMIGDDLVNSYHLLL [RBL1],0.07,0.08,0.05
LLDFFMVSILFSKLLDLLHKLQFVLT [PCNXL2],0.08,0.1,0.07
PALLVHWAKCDQKMGRGLNSSYDQQE,0.41,0.38,0.26
EQWAREIGAQLRRMLDDLNAQYERRR,0.11,0.19,0.09
PKKKMTLSEIYQWILDNFPYYREAGS [FOXJ3],0.16,0.15,0.1
MRSQLGKATALAIMGDKLWWADQVSE [LRP1],0.28,0.22,0.14
SHFVACMTAIDNQMGDQHYSFYIETF [DOCK2],0.05,0.08,0.05
WVKSIRICTPMGKLGDSCHPLTRKVP,0.81,1.07,0.56
QASREAGAAALRNVAQRLFENYQTQS [CCDC68],0.21,0.36,0.18
GVMTQEVGQLDQDMGDDVYQQYRSLT [HUWE1],0.01,0.02,0.01
YFKLFRASGDMRTNGDNYLYEIQLSS [IGF2R],0.43,0.41,0.47
EQWAREIGAQDRRMADDLNAQYERRR,0.07,0.05,0.02
AIILCNVCGNLCTDLDRFLHLHRRTK [MYCBP2],0.51,0.51,0.28
QAGPVSSGLALRKLLDRVQLLNLLVT [CCDC57],0.42,0.74,0.34
SKEVAILCSFLLGLLDSCFNTQLLSI [MFSD11],0.05,0.09,0.04
RLRQLGVAKKFGVLSDNFKGKRIVLV [PPAT],1.04,1.65,0.64
KLALEQRCRELRARLRRLEETLPRRI [KIF19],0.72,1.14,1.04
SQGKHGFTMAMNAFGDMTNEEFRQMM [CTSL2],0.09,0.08,0.08

# The next lines start with the values.
SPOT signal as a fraction of Bim BH3's signal on the same receptor and array [1],SPOT signal as a fraction of Bim BH3's signal on the same receptor and array [2],SPOT signal as a fraction of Bim BH3's signal on the same receptor and array [3],Binder
0.91,1.22,0.8,TAGLRPGARLLRVCGQTLPSLRPEAA [SIPA1]
0.13,0.45,0.14,SDIRDDISEQDRHVGRTVRGHPRKKL [TMEM184C]
0.03,0.04,0.05,NNNMDVESRTMATMLDTLASRGLLDA [SEC16A]
1.64,2.37,1.55,TAAAAYRGAHLRGRLRTVYNTFRAAA [XXXX]
0.03,0.05,0.03,KIETTPESRYDAQIGDSVSLTCSTTG [VCAM1]
0.06,0.11,0.06,VTLLSEVEKMLSNFLDCVQYKEIVKN [SYNE1]
0.73,1.11,0.78,ISSYMVLAPVFGYLLDRYNRKYLMCG [SPNS1]
0.04,0.05,0.03,TSRINEVQVNLSLLLDDLLLPAQSTL [SPHKAP]
0.71,1.3,0.69,PYLSKHRADRMRRLGDFLNQESFDLA [SMPD2]
0.04,0.07,0.04,FGEYSGISENDILVGDDFWIPETSFI [ROS1]
0.51,0.89,0.47,PALLVHWAKCLQKMGRGLNSSYDQQE
